In article PMC8686473:

What was measured:
[1] = target: Etanercept (UniProt P20333); assay: SEC-MALS; untreated formulation diluted 25 times in water to 2 mg/ml; BioResolve SEC mAb column, 50 mM phosphate buffer pH 7, 200 mM KCl, 30°C, 0.5 ml/min
[2] = target: Etanercept (UniProt P20333); assay: SEC-MALS; formulation after forced degradation (stirring at 600 rpm, 60°C, 2 h); BioResolve SEC mAb column, 50 mM phosphate buffer pH 7, 200 mM KCl, 30°C, 0.5 ml/min

**Q.** What does the source list for “Etanercept (from UniProt P20333 23-257) (Fc fusion)”?
**A.** stoichiometry N [1]: 3; stoichiometry N [2]: 23
